Where no end group is shown, it is not given here.

One assay addresses T1, CAL PDZ (human, UniProt Q9HD26).
Test: not given
In general, Ki refers to the dissociation constant of the complex between target and ligand, obtained from inhibition or displacement. Regarding Ac-WQVTRV [kCAL01], the Ki is ~1 µM.

A further assay deals with T1, CAL PDZ. Briefly: FP, competition.
ANSRWQVTRV came in with a Ki of 1.17 µM.
On the same count and under the same terms, for ANSRWQVTRV [ANSRWQVTRV (second entry)] the value was 1.13 µM; for Ac-LPVTRV [Ac-LPVTRV], 4.42 µM; for Ac-WPVTRV [Ac-WPVTRV], 1.22 µM.

A further assay has as its target T2, NHERF-1 PDZ1 (human, UniProt O14745).
T2 chain: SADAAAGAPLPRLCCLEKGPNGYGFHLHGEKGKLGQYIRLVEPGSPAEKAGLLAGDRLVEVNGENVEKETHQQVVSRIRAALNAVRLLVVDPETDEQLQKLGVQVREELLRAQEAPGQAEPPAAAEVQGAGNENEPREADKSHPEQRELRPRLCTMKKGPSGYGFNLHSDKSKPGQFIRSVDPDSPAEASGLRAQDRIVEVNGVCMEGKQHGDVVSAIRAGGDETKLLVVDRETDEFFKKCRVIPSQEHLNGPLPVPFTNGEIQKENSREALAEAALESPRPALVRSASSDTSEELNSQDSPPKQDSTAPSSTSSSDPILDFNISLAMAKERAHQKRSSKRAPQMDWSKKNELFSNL
Briefly: FP, competition.
Regarding ANSRLPTSK(Ac)I [ANSRLPTS[Ac-K]I], the Ki was > 5000 µM.
Still for that read-out and setting: for ANSRWQVTRV the value was 2.8 µM; for ANSRWQVTRV [ANSRWQVTRV (second entry)], 2.8 µM.
Same read-out and setting: with ANSRLPTSII [iCAL42 ANSRLPTSII] the figure was > 5000 µM; with ANSRLPTSKI [ANSRLPTS[K-AEBA]I], > 5000 µM.

Another assay concerns the target T3, TIP-1 (human, UniProt O14907).
T3 chain: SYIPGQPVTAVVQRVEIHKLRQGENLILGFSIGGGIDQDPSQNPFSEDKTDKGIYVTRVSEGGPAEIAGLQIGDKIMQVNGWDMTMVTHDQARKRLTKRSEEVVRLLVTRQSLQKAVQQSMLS
In words: FP, competition.
For ANSRLPTSK(Ac)I [ANSRLPTS[Ac-K]I], the Ki is > 5000 µM.
For the molecule ANSRWQVTRV, the Ki turned out to be 0.057 µM.
The same measure, in the same setting: with ANSRWQVTRV [ANSRWQVTRV (second entry)] the figure was 0.057 µM.
The same measure, in the same setting: with ANSRLPTSII [iCAL42 ANSRLPTSII] the figure was > 5000 µM; with Ac-LPVTRV [Ac-LPVTRV], > 5000 µM; with Ac-WPVTRV [Ac-WPVTRV], 0.258 µM.
For the molecule ANSRLPTSKI [ANSRLPTS[K-AEBA]I], the Ki is > 5000 µM.

The next assay concerns the target T4, NHERF-1 PDZ2 (human, UniProt O14745).
T4 chain: T2 chain
In words: FP, competition.
Turning to ANSRLPTSK(Ac)I [ANSRLPTS[Ac-K]I], the Ki is > 5000 µM.
ANSRWQVTRV had a Ki of 208 µM.
Still for that read-out and setting: with ANSRLPTSII [iCAL42 ANSRLPTSII] the figure was > 5000 µM; with ANSRLPTSKI [ANSRLPTS[K-AEBA]I], > 5000 µM.

For the origin of these results see patent US20180318382 (published 2018).
